# Data: patent US20260250322A1, “NEW PEPTIDES AS SELECTIVE IL-23 RECEPTOR INHIBITORS” (SANOFI, priority 2023, published 2026)
# Numbered stars: 1 amine (or outer) side, 2 acyl side, 3 side chain; on linkers, the order of the positions; unused ones are H or OH. Bridge positions count the residues as written; N and C are the ends. Square brackets hold non-standard residues; d marks the D form. Tyr(Me) = Yme = 4-methoxy-L-phenylalanine (O-methyl-tyrosine), COc1ccc(C[C@H](N[*:1])C(=O)[*:2])cc1; Trp(1-Me) = Cn1cc(C[C@H](N)C(=O)O)c2ccccc21; dAla(4-thiazolyl) = N[C@H](Cc1cscn1)C(=O)O; 1Nal = N[C@@H](Cc1cccc2ccccc12)C(=O)O; 2Nal = N[C@@H](Cc1ccc2ccccc2c1)C(=O)O; Cit = NC(=O)NCCC[C@H](N)C(=O)O; αMeL = CC(C)C[C@](C)(N)C(=O)O; Orn = NCCC[C@H](N)C(=O)O; Aib = CC(C)(N)C(=O)O
# B1: peptide compound SEQ ID NO: 23 (peptide)
# peptide: Ac-[dK]NT[Trp(1-Me)]QR[Tyr(Me)][1Nal][αMeL]DNN-NH2
# modifications: lactam 1-10
# SMILES: COc1ccc(C[C@@H]2NC(=O)[C@H](CCCNC(=N)N)NC(=O)[C@H](CCC(N)=O)NC(=O)[C@H](Cc3cn(C)c4ccccc34)NC(=O)[C@H]([C@@H](C)O)NC(=O)[C@H](CC(N)=O)NC(=O)[C@H](NC(C)=O)CCCCNC(=O)C[C@@H](C(=O)N[C@@H](CC(N)=O)C(=O)N[C@@H](CC(N)=O)C(N)=O)NC(=O)[C@](C)(CC(C)C)NC(=O)[C@H](Cc3cccc4ccccc34)NC2=O)cc1
# B2: peptide compound SEQ ID NO: 25 (peptide)
# peptide: Ac-[dK]NT[Trp(1-Me)]QR[Tyr(Me)][2Nal][dAla(4-thiazolyl)]DNN-NH2
# modifications: lactam 1-10
# SMILES: COc1ccc(C[C@@H]2NC(=O)[C@H](CCCNC(=N)N)NC(=O)[C@H](CCC(N)=O)NC(=O)[C@H](Cc3cn(C)c4ccccc34)NC(=O)[C@H]([C@@H](C)O)NC(=O)[C@H](CC(N)=O)NC(=O)[C@H](NC(C)=O)CCCCNC(=O)C[C@@H](C(=O)N[C@@H](CC(N)=O)C(=O)N[C@@H](CC(N)=O)C(N)=O)NC(=O)[C@@H](Cc3cscn3)NC(=O)[C@H](Cc3ccc4ccccc4c3)NC2=O)cc1
# B3: peptide compound SEQ ID NO: 12 (peptide)
# peptide: Ac-[dD]NTWQR[Tyr(Me)][2Nal][Aib]KNN-NH2
# modifications: lactam 1-10
# SMILES: COc1ccc(C[C@@H]2NC(=O)[C@H](CCCNC(=N)N)NC(=O)[C@H](CCC(N)=O)NC(=O)[C@H](Cc3c[nH]c4ccccc34)NC(=O)[C@H]([C@@H](C)O)NC(=O)[C@H](CC(N)=O)NC(=O)[C@H](NC(C)=O)CC(=O)NCCCC[C@@H](C(=O)N[C@@H](CC(N)=O)C(=O)N[C@@H](CC(N)=O)C(N)=O)NC(=O)C(C)(C)NC(=O)[C@H](Cc3ccc4ccccc4c3)NC2=O)cc1
# B4: peptide compound SEQ ID NO: 31 (peptide)
# peptide: Ac-[dK]NTWQV[Tyr(Me)][2Nal][Aib]DNN-NH2
# modifications: lactam 1-10
# SMILES: COc1ccc(C[C@@H]2NC(=O)[C@H](C(C)C)NC(=O)[C@H](CCC(N)=O)NC(=O)[C@H](Cc3c[nH]c4ccccc34)NC(=O)[C@H]([C@@H](C)O)NC(=O)[C@H](CC(N)=O)NC(=O)[C@H](NC(C)=O)CCCCNC(=O)C[C@@H](C(=O)N[C@@H](CC(N)=O)C(=O)N[C@@H](CC(N)=O)C(N)=O)NC(=O)C(C)(C)NC(=O)[C@H](Cc3ccc4ccccc4c3)NC2=O)cc1
# B5: peptide compound SEQ ID NO: 10 (peptide)
# peptide: Ac-[dK]NT[Trp(1-Me)]QR[Tyr(Me)][2Nal]K(Ac)DNN-NH2
# modifications: lactam 1-10
# SMILES: COc1ccc(C[C@@H]2NC(=O)[C@H](CCCNC(=N)N)NC(=O)[C@H](CCC(N)=O)NC(=O)[C@H](Cc3cn(C)c4ccccc34)NC(=O)[C@H]([C@@H](C)O)NC(=O)[C@H](CC(N)=O)NC(=O)[C@H](NC(C)=O)CCCCNC(=O)C[C@@H](C(=O)N[C@@H](CC(N)=O)C(=O)N[C@@H](CC(N)=O)C(N)=O)NC(=O)[C@H](CCCCNC(C)=O)NC(=O)[C@H](Cc3ccc4ccccc4c3)NC2=O)cc1
# B6: peptide IL-23 receptor inhibitor SEQ. ID NO. 24 (peptide)
# peptide: Ac-[dK]NT[Trp(1-Me)]QR[Tyr(Me)][2Nal][αMeL]DNN-NH2
# modifications: lactam 1-10
# SMILES: COc1ccc(C[C@@H]2NC(=O)[C@H](CCCNC(=N)N)NC(=O)[C@H](CCC(N)=O)NC(=O)[C@H](Cc3cn(C)c4ccccc34)NC(=O)[C@H]([C@@H](C)O)NC(=O)[C@H](CC(N)=O)NC(=O)[C@H](NC(C)=O)CCCCNC(=O)C[C@@H](C(=O)N[C@@H](CC(N)=O)C(=O)N[C@@H](CC(N)=O)C(N)=O)NC(=O)[C@](C)(CC(C)C)NC(=O)[C@H](Cc3ccc4ccccc4c3)NC2=O)cc1
# B7: peptide compound SEQ ID NO: 15 (peptide)
# peptide: Ac-[dK]NTWQR[Tyr(Me)][2Nal][Aib]DNN-NH2
# modifications: lactam 1-10
# SMILES: COc1ccc(C[C@@H]2NC(=O)[C@H](CCCNC(=N)N)NC(=O)[C@H](CCC(N)=O)NC(=O)[C@H](Cc3c[nH]c4ccccc34)NC(=O)[C@H]([C@@H](C)O)NC(=O)[C@H](CC(N)=O)NC(=O)[C@H](NC(C)=O)CCCCNC(=O)C[C@@H](C(=O)N[C@@H](CC(N)=O)C(=O)N[C@@H](CC(N)=O)C(N)=O)NC(=O)C(C)(C)NC(=O)[C@H](Cc3ccc4ccccc4c3)NC2=O)cc1
# B8: peptide compound SEQ ID NO: 32 (peptide)
# peptide: Ac-[dK]NTWQ[Aib][Tyr(Me)][2Nal][Aib]DNN-NH2
# modifications: lactam 1-10
# SMILES: COc1ccc(C[C@@H]2NC(=O)C(C)(C)NC(=O)[C@H](CCC(N)=O)NC(=O)[C@H](Cc3c[nH]c4ccccc34)NC(=O)[C@H]([C@@H](C)O)NC(=O)[C@H](CC(N)=O)NC(=O)[C@H](NC(C)=O)CCCCNC(=O)C[C@@H](C(=O)N[C@@H](CC(N)=O)C(=O)N[C@@H](CC(N)=O)C(N)=O)NC(=O)C(C)(C)NC(=O)[C@H](Cc3ccc4ccccc4c3)NC2=O)cc1
# B9: peptide compound SEQ ID NO: 20 (peptide)
# peptide: Ac-[dK]NTWQV[Tyr(Me)][1Nal][Aib]DNN-NH2
# modifications: lactam 1-10
# SMILES: COc1ccc(C[C@@H]2NC(=O)[C@H](C(C)C)NC(=O)[C@H](CCC(N)=O)NC(=O)[C@H](Cc3c[nH]c4ccccc34)NC(=O)[C@H]([C@@H](C)O)NC(=O)[C@H](CC(N)=O)NC(=O)[C@H](NC(C)=O)CCCCNC(=O)C[C@@H](C(=O)N[C@@H](CC(N)=O)C(=O)N[C@@H](CC(N)=O)C(N)=O)NC(=O)C(C)(C)NC(=O)[C@H](Cc3cccc4ccccc34)NC2=O)cc1
# B10: peptide compound SEQ ID NO: 21 (peptide)
# peptide: Ac-[dK]NTWQ[Aib][Tyr(Me)][1Nal][Aib]DNN-NH2
# modifications: lactam 1-10
# SMILES: COc1ccc(C[C@@H]2NC(=O)C(C)(C)NC(=O)[C@H](CCC(N)=O)NC(=O)[C@H](Cc3c[nH]c4ccccc34)NC(=O)[C@H]([C@@H](C)O)NC(=O)[C@H](CC(N)=O)NC(=O)[C@H](NC(C)=O)CCCCNC(=O)C[C@@H](C(=O)N[C@@H](CC(N)=O)C(=O)N[C@@H](CC(N)=O)C(N)=O)NC(=O)C(C)(C)NC(=O)[C@H](Cc3cccc4ccccc34)NC2=O)cc1
# B11: peptide compound SEQ ID NO: 13 (peptide)
# peptide: Ac-[dD]NTWQR[Tyr(Me)][2Nal][Aib][Orn]NN-NH2
# modifications: lactam 1-10
# SMILES: COc1ccc(C[C@@H]2NC(=O)[C@H](CCCNC(=N)N)NC(=O)[C@H](CCC(N)=O)NC(=O)[C@H](Cc3c[nH]c4ccccc34)NC(=O)[C@H]([C@@H](C)O)NC(=O)[C@H](CC(N)=O)NC(=O)[C@H](NC(C)=O)CC(=O)NCCC[C@@H](C(=O)N[C@@H](CC(N)=O)C(=O)N[C@@H](CC(N)=O)C(N)=O)NC(=O)C(C)(C)NC(=O)[C@H](Cc3ccc4ccccc4c3)NC2=O)cc1
# B12: peptide compound SEQ ID NO: 2 (peptide)
# peptide: Ac-[dK]NTWQA[Tyr(Me)][2Nal][Aib]DNN-NH2
# modifications: lactam 1-10
# SMILES: COc1ccc(C[C@@H]2NC(=O)[C@H](C)NC(=O)[C@H](CCC(N)=O)NC(=O)[C@H](Cc3c[nH]c4ccccc34)NC(=O)[C@H]([C@@H](C)O)NC(=O)[C@H](CC(N)=O)NC(=O)[C@H](NC(C)=O)CCCCNC(=O)C[C@@H](C(=O)N[C@@H](CC(N)=O)C(=O)N[C@@H](CC(N)=O)C(N)=O)NC(=O)C(C)(C)NC(=O)[C@H](Cc3ccc4ccccc4c3)NC2=O)cc1
# B13: peptide compound SEQ ID NO: 3 (peptide)
# peptide: Ac-[dK]NTWQR[Tyr(Me)][2Nal][Aib]DNN-NH2
# modifications: lactam 1-10
# SMILES: COc1ccc(C[C@@H]2NC(=O)[C@H](CCCNC(=N)N)NC(=O)[C@H](CCC(N)=O)NC(=O)[C@H](Cc3c[nH]c4ccccc34)NC(=O)[C@H]([C@@H](C)O)NC(=O)[C@H](CC(N)=O)NC(=O)[C@H](NC(C)=O)CCCCNC(=O)C[C@@H](C(=O)N[C@@H](CC(N)=O)C(=O)N[C@@H](CC(N)=O)C(N)=O)NC(=O)C(C)(C)NC(=O)[C@H](Cc3ccc4ccccc4c3)NC2=O)cc1
# B14: peptide compound SEQ ID NO: 29 (peptide)
# peptide: Ac-[dK]NTWQR[Tyr(Me)][2Nal][Cit]DNN-NH2
# modifications: lactam 1-10
# SMILES: COc1ccc(C[C@@H]2NC(=O)[C@H](CCCNC(=N)N)NC(=O)[C@H](CCC(N)=O)NC(=O)[C@H](Cc3c[nH]c4ccccc34)NC(=O)[C@H]([C@@H](C)O)NC(=O)[C@H](CC(N)=O)NC(=O)[C@H](NC(C)=O)CCCCNC(=O)C[C@@H](C(=O)N[C@@H](CC(N)=O)C(=O)N[C@@H](CC(N)=O)C(N)=O)NC(=O)[C@H](CCCNC(N)=O)NC(=O)[C@H](Cc3ccc4ccccc4c3)NC2=O)cc1
# Biological target: T1, IL-23 receptor on the surface of HEK-Blue IL-23 cells (UniProt Q5VWK5 24-629, limits assumed)
# T1 sequence (looked up): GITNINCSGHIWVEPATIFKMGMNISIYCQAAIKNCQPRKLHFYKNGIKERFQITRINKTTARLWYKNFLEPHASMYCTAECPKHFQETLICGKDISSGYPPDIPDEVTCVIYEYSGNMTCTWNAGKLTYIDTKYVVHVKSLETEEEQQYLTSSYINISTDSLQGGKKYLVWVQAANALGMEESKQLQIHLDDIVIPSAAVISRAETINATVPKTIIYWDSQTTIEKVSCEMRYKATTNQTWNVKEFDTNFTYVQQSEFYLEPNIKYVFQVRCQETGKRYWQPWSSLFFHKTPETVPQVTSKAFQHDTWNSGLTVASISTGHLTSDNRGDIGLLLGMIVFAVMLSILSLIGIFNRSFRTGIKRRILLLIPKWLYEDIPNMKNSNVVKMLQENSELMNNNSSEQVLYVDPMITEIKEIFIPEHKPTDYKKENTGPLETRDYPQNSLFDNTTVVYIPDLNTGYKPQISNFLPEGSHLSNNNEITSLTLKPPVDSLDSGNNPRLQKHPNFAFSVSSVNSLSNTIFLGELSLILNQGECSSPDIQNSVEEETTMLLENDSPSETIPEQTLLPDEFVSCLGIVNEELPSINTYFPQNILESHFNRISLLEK
# Assay: cell-based or functional assay
row,Binder,Inhibition of IL-23 induced pSTAT3 (IC50 nM) [nM]
1,B1,1960
2,B2,3830
3,B3,6590
4,B4,128
5,B5,1440
6,B6,385
7,B7,426
8,B8,320
9,B9,10000
10,B10,7500
11,B11,1150
12,B12,234
13,B13,430
14,B14,2720
